T1: biotinylated IL-2 receptor beta gamma heterodimer Fc (IL-2RBG; Acro ILG-H5254) (UniProt P14784 27-239; P31785 23-262, biotinylated)
T1 construct: bought heterodimer
T1 sequence (looked up) 1: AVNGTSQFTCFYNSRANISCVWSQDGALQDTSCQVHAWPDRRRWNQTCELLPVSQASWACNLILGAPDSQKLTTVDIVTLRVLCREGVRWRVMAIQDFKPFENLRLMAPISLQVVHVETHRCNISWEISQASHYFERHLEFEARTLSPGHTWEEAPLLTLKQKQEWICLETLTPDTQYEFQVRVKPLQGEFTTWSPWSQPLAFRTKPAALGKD
T1 sequence (looked up) 2: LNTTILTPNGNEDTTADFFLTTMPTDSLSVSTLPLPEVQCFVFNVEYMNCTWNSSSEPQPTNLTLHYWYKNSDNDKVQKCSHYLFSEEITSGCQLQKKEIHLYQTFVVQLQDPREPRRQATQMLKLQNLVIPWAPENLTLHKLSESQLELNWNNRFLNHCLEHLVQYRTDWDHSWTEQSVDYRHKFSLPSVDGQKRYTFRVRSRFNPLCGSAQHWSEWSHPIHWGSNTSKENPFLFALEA


Key:
[1] = target: T1, biotinylated IL-2 receptor beta gamma …; test: ELISA, captured complex, biotin-IL-2RBG titrated
PD-1 = PD-1 (human, UniProt Q15116 25-167, limits assumed); test: HTRF
human IL-2 [2] = target: T2, human IL-2 (human, UniProt P60568 21-153, biotin-labeled in the IL2RB blocking assay); test: HTRF
T2 construct: also called biotin-labeled IL-2 (Acro Biosystems IL2-H82E4)

human IL-2 [3] = target: T2, human IL-2; test: HTRF IL-2:IL2RB
IL2 (R&D, 202-IL) = IL2 (R&D, 202-IL) (UniProt P60568 21-153); test: ELISA, scFv on anti-V5
Description: The scFv DNA sequence for each clone was synthesized as a GBLOCK® (Integrated DNA Technologies, Inc.) with a T7 promoter, a translation initiation site, the coding sequence for the scFv sequence with cMyc and V5 tags, and a T7 terminator sequence. Proteins from each of the GBLOCK® fragments were expressed using a cell-free transcription/translation system (Cosmo Bio USA, Inc., PUREFREX® 2.1, Product #GFK-PF213 with DS Supplement, Prod. #GFK-PF005). […] In these experiments, wells of a 384-well plate were coated with an anti-V5 antibody (Sv5-Pk1, BioRad) at lug/ml overnight at 4 degrees. After washing, wells were blocked with SUPERBLOCK™ (ThermoFisher, 37515) followed by addition of saturating levels of scFvs in SUPERBLOCK™. After washing, antigens were added and plates incubated for one hour. To detect PD1 binding, a biotinylated recombinant PD1 was used (PD1-HisAvi, Acro Biosystems, PD1-H82E4). […] Biotinylated antigens were detected using streptavidin HRP using standard methods. Varying amounts of labelled test antigen were added to show binding and to estimate relative affinities of the different scFvs.

PD-1, sequence (Q15116 25-167 limits assumed): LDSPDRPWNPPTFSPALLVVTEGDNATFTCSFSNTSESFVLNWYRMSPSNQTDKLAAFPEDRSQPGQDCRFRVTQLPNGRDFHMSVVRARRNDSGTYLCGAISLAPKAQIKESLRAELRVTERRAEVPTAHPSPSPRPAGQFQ
T2 sequence (P60568 21-153 limits assumed): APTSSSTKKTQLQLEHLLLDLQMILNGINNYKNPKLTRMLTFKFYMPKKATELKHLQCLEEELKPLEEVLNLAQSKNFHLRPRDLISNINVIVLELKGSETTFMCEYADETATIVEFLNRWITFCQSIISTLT

| Binder | binding result [1] | PD1 Binding (PD-1) | IL2 Binding (human IL-2 [2]) | IL2RB Blocking (human IL-2 [3]) | binding result (IL2 (R&D, 202-IL)) |
| --- | --- | --- | --- | --- | --- |
| AF004695 (other, also called AF4695) heavy 1: QVQLVESGGGVVQPGRSLRLDCKASGITFSNSGMHWVRQAPGKGLEWVAVIWYDGSKRYYADSVKGRFTISRDNSKNTLFLQMNSLRAEDTAVYYCATNDDYWGQGTLVTVSSAKTTAPSVYPLAPVCGDTTGSSVTLGCLVKGYFPEPVTLTWNSGSLSSGVHTFPAVLQSDLYTLSSSVTVTSSTWPSQSITCNVAHPASSTKVDKKIEPRGPTIKPCPPCKCPAPNAAGGPSVFIFPPKIKDVLMISLSPIVTCVVVDVSEDDPDVQISWFVNNVEVHTAQTQTHREDYNSTLRVVSALPIQHQDWMSGKEFKCKVNNKDLGAPIERTISKPKGSVRAPQVYVLPPPEEEMTKKQVTLTCMVTDFMPEDIYVEWTNNGKTELNYKNTEPVLDSDGSYFMYSDLRVEKKNWVERNSYSCSVVHEGLHNHHTTESFSRTPGGGGGSGGGGSGGGGSAPTSSSTKKTQLQLEHLLLDLQMILNGINNYKNPKLTDMLTFEFYMPKKATELKHLQCLERELKPLEEVLNLAQSKNFHLRPRDLISNINVIVLELKGSETTFMCEYADETATIVEFLNRWITFCQSIISTLT heavy 2: QVQLVESGGGVVQPGRSLRLDCKASGITFSNSGMHWVRQAPGKGLEWVAVIWYDGSKRYYADSVKGRFTISRDNSKNTLFLQMNSLRAEDTAVYYCATNDDYWGQGTLVTVSSAKTTAPSVYPLAPVCGDTTGSSVTLGCLVKGYFPEPVTLTWNSGSLSSGVHTFPAVLQSDLYTLSSSVTVTSSTWPSQSITCNVAHPASSTKVDKKIEPRGPTIKPCPPCKCPAPNAAGGPSVFIFPPKIKDVLMISLSPIVTCVVVDVSEDDPDVQISWFVNNVEVHTAQTQTHREDYNSTLRVVSALPIQHQDWMSGKEFKCKVNNKDLGAPIERTISKPKGSVRAPQVYVLPPPEKEMTKKQVSLTCLVKDFMPEDIYVEWTNNGKTELNYKNTEPVLKSDGSYFMYSKLTVEKKNWVERNSYSCSVVHEGLHNHHTTKSFSRTPGGGGGSGGGGSGGGGSGGGGSQVQLVQSGAEVKKPGASVKVSCKASGDTFTRYYVHWVRQAPGQGLEWMGIINPSGGYASYAQKFQGRVTMTRDTSTSTVYMELSSLRSEDTAVYYCAAGLFIWGQGTLVTVSSASGGGGSGGGGSGGGGSHASDIQMTQSPSSLSASVGDRVTITCRASQSIGRWLAWYQQKPGKAPKLLIYSASNLETGVPSRFSGSGSGTDFTLTISSLQPEDFATYYCQQYNRFPVTFGPGTKVDIK light: EIVLTQSPATLSLSPGERATLSCRASQSVSSYLAWYQQKPGQAPRLLIYDASNRATGIPARFSGSGSGTDFTLTISSLEPEDFAVYYCQQSSNWPRTFGQGTKVEIKRADAAPTVSIFPPSSEQLTSGGASVVCFLNNFYPKDINVKWKIDGSERQNGVLNSWTDQDSKDSTYSMSSTLTLTKDEYERHNSYTCEATHKTSTSPIVKSFNRNEC | binds | – | – | – | – |
| AF004696 (other, also called AF4696) heavy 1: QVQLVESGGGVVQPGRSLRLDCKASGITFSNSGMHWVRQAPGKGLEWVAVIWYDGSKRYYADSVKGRFTISRDNSKNTLFLQMNSLRAEDTAVYYCATNDDYWGQGTLVTVSSAKTTAPSVYPLAPVCGDTTGSSVTLGCLVKGYFPEPVTLTWNSGSLSSGVHTFPAVLQSDLYTLSSSVTVTSSTWPSQSITCNVAHPASSTKVDKKIEPRGPTIKPCPPCKCPAPNAAGGPSVFIFPPKIKDVLMISLSPIVTCVVVDVSEDDPDVQISWFVNNVEVHTAQTQTHREDYNSTLRVVSALPIQHQDWMSGKEFKCKVNNKDLGAPIERTISKPKGSVRAPQVYVLPPPEEEMTKKQVTLTCMVTDFMPEDIYVEWTNNGKTELNYKNTEPVLDSDGSYFMYSDLRVEKKNWVERNSYSCSVVHEGLHNHHTTESFSRTPGGGGGSGGGGSGGGGSAPTSSSTKKTQLQLEHLLLDLQMILNGINNYKNPKLTDMLTFEFYMPKKATELKHLQCLERELKPLEEVLNLAQSKNFHLRPRDLISNINVIVLELKGSETTFMCEYADETATIVEFLNRWITFCQSIISTLT heavy 2: QVQLVESGGGVVQPGRSLRLDCKASGITFSNSGMHWVRQAPGKGLEWVAVIWYDGSKRYYADSVKGRFTISRDNSKNTLFLQMNSLRAEDTAVYYCATNDDYWGQGTLVTVSSAKTTAPSVYPLAPVCGDTTGSSVTLGCLVKGYFPEPVTLTWNSGSLSSGVHTFPAVLQSDLYTLSSSVTVTSSTWPSQSITCNVAHPASSTKVDKKIEPRGPTIKPCPPCKCPAPNAAGGPSVFIFPPKIKDVLMISLSPIVTCVVVDVSEDDPDVQISWFVNNVEVHTAQTQTHREDYNSTLRVVSALPIQHQDWMSGKEFKCKVNNKDLGAPIERTISKPKGSVRAPQVYVLPPPEKEMTKKQVSLTCLVKDFMPEDIYVEWTNNGKTELNYKNTEPVLKSDGSYFMYSKLTVEKKNWVERNSYSCSVVHEGLHNHHTTKSFSRTPGGGGGSGGGGSGGGGSGGGGSQVQLVQSGAEVKKPGASVKVSCKASGYTFTRYYMHWVRQAPGQGLEWMGIINPRAGYTSYALKFQGRVTMTRDTSTSTVYMELSSLRSEDTAVYYCTSGWDVWGQGTLVTVSSASGGGGSGGGGSGGGGSHASDIQMTQSPSSLSASVGDRVTITCRASQSISTWLAWYQQKPGKAPKLLIYAASSLDSGVPSRFSGSGSGTDFTLTISSLQPEDFATYYCQQSYSFPVTFGQGTKVEIK light: EIVLTQSPATLSLSPGERATLSCRASQSVSSYLAWYQQKPGQAPRLLIYDASNRATGIPARFSGSGSGTDFTLTISSLEPEDFAVYYCQQSSNWPRTFGQGTKVEIKRADAAPTVSIFPPSSEQLTSGGASVVCFLNNFYPKDINVKWKIDGSERQNGVLNSWTDQDSKDSTYSMSSTLTLTKDEYERHNSYTCEATHKTSTSPIVKSFNRNEC | binds | – | – | – | – |
| PD1-R04-C10 (scFv, tied by the comment 'PD1_R04_C10- Internal anti-PD1 mAb' of PEP001315) scFv: MSTSTEQKLISEEDLQVQLVQSGAEVKKPGASVKVSCKASGYTFTTYYMHWVRQAPGQGLEWMGIINPSGGGTLYAQKFQGRVTMTRDTSTSTVYMELSSLRSEDTAVYYCAAGLFIWGQGTTVTVSSASGGGGSGGGGSGGGGSHASDIVMTQSPDSLAVSLGERATINCKASQSLLHSSSNKNYLAWYQQKPGQPPKLLIYWASTRESGVPDRFSGSGSGTDFTLTISSLQAEDVAVYYCQQYYSTPITFGPGTKVDIKGSGLNDIFEAQKIEWHEGKPIPNPLLGLDST | – | 1550 | 4 | 1550 | – |
| PD1-IL2-R02-C02 (SEQ ID NO: 31) (scFv, V5-tagged in the assay) scFv: QVQLVQSGAEVKKPGVSVKVSCKASGYTFPRSYIHWVRQAPGQGLEWMGWINPHSGDTYYAQNFQGRVTMTRDTSTSTVYMELSSLRSEDTAVYYCARDTGLGYYYGSGDFDYWGQGTLVTVSSASGGGGSGGGGSGGGGSHASDIQMTQSPSSLSASVGDRVTITCRASQSISRYLNWYQQKPGKAPKLLIYTASSLQSGVPSRFSGSGSGTDFTLTISSLQPEDFATYYCQQANRFPLTFGPGTKVDIK | – | 1300 | 298 | 1070 | – |
| AB000694 (anti-PD1 control) scFv (AF005039) (scFv, V domains shown, scFv with cMyc and V5 tags; also called AB000694_nivo) VH: QVQLVESGGGVVQPGRSLRLDCKASGITFSNSGMHWVRQAPGKGLEWVAVIWYDGSKRYYADSVKGRFTISRDNSKNTLFLQMNSLRAEDTAVYYCATNDDYWGQGTLVTVSS VL: EIVLTQSPATLSLSPGERATLSCRASQSVSSYLAWYQQKPGQAPRLLIYDASNRATGIPARFSGSGSGTDFTLTISSLEPEDFAVYYCQQSSNWPRTFGQGTKVEIK | – | – | – | – | no binding |
| PD1-IL2-R02-C03 (SEQ ID NO: 32) (scFv, V5-tagged in the assay) scFv: QVQLVQSGAEVKKPGASVKVSCKASGYTFPRYHIHWVRQAPGQGLEWMGMINPSGGTTTYAQKFQGRVTMTRDTSTSTVYMELSSLRSEDTAVYYCARDTGLGYYYGSGDFDYWGQGTLVTVSSASGGGGSGGGGSGGGGSHASDIQMTQSPSSLSASVGDRVTITCRASQSISSWLAWYQQKPGKAPKLLIYAASSLQSGVPSRFSGSGSGTDFTLTISSLQPEDFATYYCQQSHSFPLTFGGGTKVEIK | – | 1380 | 293 | 1210 | – |
| PD1-IL2-R02-B05 (scFv) QVQLVQSGAEVKKPGASVKVSCKASGYTFTNYYIHWVRQAPGQGLEWMGIINPRAGYTSYALKFQGRVTMTRDTSTSTVYMELSSLRSEDTAVYYCAGGWLDWGQGTLVTVSSASGGGGSGGGGSGGGGSHASDIQMTQSPSSLSASVGDRVTITCRASQSISSWLAWYQQKPGKAPKLLIYAASSLQSGVPSRFSGSGSGTDFTLTISSLQPEDFATYYCQQSFTMPITFGQGTRLEIK | – | 1660 | 2490 | 1610 | – |
| PD1-IL2-R02-B07 (scFv) QVQLVQSGAEVKKPGASVKVSCKASGDTFTRHYVHWVRQAPGQGLEWMGIINPSGGYASYAQKFQGRVTMTRDTSTSTVYMELSSLRSEDTAVYYCAAGLFIWGQGTLVTVSSASGGGGSGGGGSGGGGSHASDIQMTQSPSSLSASVGDRVTITCRASQSIGRWLAWYQQKPGKAPKLLIYSASNLETGVPSRFSGSGSGTDFTLTISSLQPEDFATYYCQQANSFPVTFGPGTKVDIK | – | 1680 | 628 | 1810 | – |

From patent US20240366776A1 (Hoffmann-La Roche, published 2024)
